Measurements as given in patent US20060009452A1, “Therapeutic targeting of PARC/CCL18 and its signaling in pulmonary fibrosis” (priority 2004, published 2006).
Entries after “also recorded” stand apart in the source; their conditions may differ.

Columns and labels:
Format in all cases: cell-based, human
[1] = test system: Sp1-sensitive promoter; experiment: Luciferase assay of Sp1-sensitive promoter (pGAGC6) in transfected lung fibroblasts; conditions: pGAGC6-transfected primary lung fibroblasts
Experimental: FIG. 16. Stimulation with PARC increases Sp1 promoter-stimulating activity in cultured primary lung fibroblasts. Luciferase activity was measured in a chemiluminescence-based assay in cell lysates from the following fibroblast cultures: mock-transfected non-stimulated (Medium), pGAM-transfected non-stimulated (pGAM Ctrl), pGAM-transfected PARC-stimulated (PGAM PARC), pGAGC6-transfected non-stimulated (pGAGC6 Ctrl), and pGAGC6-transfected PARC-stimulated (pGAGC6 PARC).

[2] = test system: Sp1; experiment: EMSA of nuclear lysates with Sp1-specific probe; conditions: consensus and collagen α2(I) promoter-specific probes
Experimental: NushifTM kits for EMSA and supershift assays and reagents for preparation of nuclear extracts were purchased from Active Motif (Carlsbad, Calif.); the procedures were performed according to manufacturer's recommendations, including end-labeling of the specific probes with [γ-^32P]ATP. In addition to the [γ-^32P]ATP-labeled Sp1 consensus probe ([NT] ID NO:5), wild-type and mutant ([NT] ID NO:6) oligo competitors, and an Sp1-specific antibody from the kit, an oligonucleotide representing the Sp1-binding region in the α2(I) collagen promoter ([NT] ID NO:7) was used as a probe (after end-labeling with [γ-^32P]ATP) and as a cold competitor. […] Nuclear extracts were adjusted for total protein content to ensure equal loading. Gels were exposed to a Phosphorimager screen and scanned using a Storm Phosphorimager (Molecular Dynamics); band densities were analyzed with ImageQuant software.

[3] = test system: lung fibroblasts; experiment: Collagen production, metabolic labeling with 14C-proline, PAGE and autoradiography
Experimental: Collagen Production Assays. Production of collagen was assessed using metabolic labeling with ^14C-proline and Western blotting with anti-collagen type I antibody. For metabolic labeling of collagen, fibroblasts were plated at 2×10^5 cells/well in 6-well plates (Costar, Cambridge, Mass.), in duplicates, incubated overnight in 3 ml/well of high serum medium, and then for 24 h in low-serum medium. After that, the culture medium was replaced with 1 ml/well of fresh low serum medium with or without added test substances and containing ^14C-proline at 1 μCi/ml (Amersham Pharmacia Biotech). After incubation for the desired periods of time, the cell culture supernatants were collected, rapidly frozen in liquid nitrogen and freeze-dried at −70° C. The pellets were dissolved in 100 μl of reducing Laemmli buffer per 1 ml of the cell culture supernatant, and the samples were electrophoretically separated in 7.5% acrylamide gels. Alternatively, samples were concentrated 10-fold by filter centrifugation on 30K Ultrafree-MC filters (Millipore, Bedford, Mass.). Fluorographic images were developed using EN[3H]ANCE autoradiography enhancer (NEN, Boston, Mass.). Gel images were acquired using Storm densitometer (Molecular Dynamics, Sunnyvale, Calif.), and the densities of the bands were analyzed with ImageQuant software (Molecular Dynamics). Dependence of collagen production by fibroblast cultures on the dose of PARC and duration of stimulation were evaluated using one-way ANOVA with post hoc testing.
The identity of collagen bands was confirmed by sensitivity to pepsin and collagenase (both from Sigma) digestion. For pepsin digestion, 2 μl of 1 Macetic acid were added to 40 μl of concentrated fibroblast culture supernatant, followed by 1 μl of pepsin stock, to achieve final concentration of pepsin as indicated in the text. After 15 min of digestion at room temperature, reaction was stopped with 4 μl of 1 M Tris base and 40 μl of reducing Laemmli buffer. For collagenase digestion, 1 μl of 4 U/ml bacterial collagenase and 1 μl of protease inhibitor cocktail (Sigma) were added to 40 μl of sample and digestion performed at room temperature for 30 min. The bacterial collagenase was highly purified and had minimal clostripain and neutral protease activity, as tested by the manufacturer, according to the product information sheet.
To test effects of rhPARC on collagen protein production by lung and dermal fibroblast cell lines, fibroblast cultures were incubated for 48 h with or without 30 ng/ml and 300 ng/ml rhPARC in the low-serum cell culture medium containing 14Cproline for metabolic labeling of collagen. Fibroblast culture supernatants contained two 14C-proline containing bands in gel electrophoresis under reducing conditions (FIGS. 13A and 13B). Digestion with chromatographically pure bacterial collagenase in the presence of protease inhibitors eliminated the bands completely (FIG. 13A). To confirm the identity of these bands, we conducted Western blotting experiments in reducing conditions of fibroblast culture supernatants using an anti-collagen type I antibody, that recognizes α1(I) collagen but not other collagen chains. Digestion with pepsin caused expected decrease in the apparent molecular weight of the immunoreactive collagen from ˜175 kD to ˜125 kD (FIG. 13C).

[4] = test system: Sp1; experiment: TranSignal protein/DNA arrays of nuclear lysates; conditions: LF1 and LF2
[5] = test system: TGF-β1; experiment: TGF-β1 ELISA of fibroblast supernatants and lysates; conditions: 300 ng/ml rhPARC
Description: Transforming Growth Factor-β ELISA Assays. ELISA kits for TGF-β1 and TGF-β2 were purchased from R&D Systems. ELISA for TGF-β3 was custom developed using a DuoSet ELISA Development System (R&D Systems) following manufacturer's recommendations. […] Recombinant human TGF-β1, TGF-β2, and TGF-β3 from R&D Systems were used in serial dilutions for calibration of the assays. The minimal detection level in these assays was 10-20 pg/ml of TGF-β. Low serum cell culture medium containing 0.5% dialyzed fetal bovine serum had no detectable TGF-β and was used as a negative control in these assays. Each of LF1-LF4 cultures was tested in duplicates for each time point in at least three independent experiments.
Transforming Growth Factor-β1 ELISA Assays. ELISA kits for transforming growth factor (TGF)-β1 were purchased from R&D Systems (Minneapolis, Minn.), and fibroblast culture supernatants and whole cell lysates after 3, 6, 12, 24, 48, and 72 h activation with rhPARC were assayed in duplicates for total TGF-β1, according to the manufacturer's instructions. Low-serum cell culture medium containing 0.5% dialyzed fetal bovine serum had no detectable TGF-β1 and was used as a negative control in these assays.
ELISA kits for TGF-β1, -β2, and -β3 were purchased from R&D Systems and assays performed following manufacturer's recommendations. […] The minimal detection level in these assays was 10-20 pg/ml of TGF-β. […]

B1: rhPARC: Recombinant human pulmonary and activation-regulated chemokine (CC chemokine CCL18), purchased from R&D Systems and Cell Sciences (protein)
chain: AQVGTNKELCCLVYTSWQIPQKFIVDYSETSPQCPKPGVILLTKRGRQICADPNKKWVQKYISDLKLNA
[1]
  Sp1 promoter-stimulating activity (luciferase): leads to activation of the Sp1-sensitive promoter
[2]
  DNA binding by Sp1 (EMSA): three-fold increase; also recorded: activates transcription factor Sp1
[3]; 48 h, 300 ng/ml rhPARC, responding lung and dermal lines
  average increase in the density of collagen bands: 3.4±0.9 fold
[3]; 48 h, five out of seven tested lung and dermal fibroblast lines
  increase of fibroblast production of collagen over control: more than 3 fold
[3]; LF1 cells, 300 ng/ml rhPARC, 48 h
  combined density of procollagen bands, fold higher than non-stimulated control: 3.4 fold
[3]; LF2 cells, 30 ng/ml rhPARC, 48 h
  combined density of procollagen bands, fold higher than non-stimulated control: 2.7 fold
[3]; LF2 cells, 300 ng/ml rhPARC, 48 h
  combined density of procollagen bands, fold higher than non-stimulated control: 4.4 fold
[3]; up to 72 h, rhPARC up to 1,000 ng/ml
  response of collagen production in one lung and one dermal fibroblast line: non-responsive
[4]
  DNA binding by Sp1 (protein/DNA arrays): consistently increased
[5]; 3-72 h, lung and dermal fibroblast lines
  maximal increase in production of TGFβ1 by fibroblasts: 1.3±0.2 fold
[5]; primary lung fibroblast cultures
  total TGF-β1 in culture supernatants after stimulation: decreased
